{
  "source": "the supplement of paper PMC10567573",
  "parents": {"B1": {"name": "C8orf76 (parent)", "chain": "YCAKLCEPQWFYEETESSDDVEVL"}},
  "data": [
    {"variants_of": "B1", "test": "protein stability index of a GFP-peptide fusion (GPS, HEK-293T) (PSI 1-6); higher = more stable", "conditions": "c terminus: a fixed tail appended", "values": [
      {"variant": "YCAKLCEPQWFDEETESSDDVEVL", "protein stability index": 3.63},
      {"variant": "YCAKLCEPQWFMEETESSDDVEVL", "protein stability index": 1.97},
      {"variant": "YCAKLCEPQWFGEETESSDDVEVL", "protein stability index": 2.62},
      {"variant": "YCAKLCEPQWFTEETESSDDVEVL", "protein stability index": 1.82},
      {"variant": "YCAKLCEPQWFEEETESSDDVEVL", "protein stability index": 3.35},
      {"variant": "YCAKLCEPQWFAEETESSDDVEVL", "protein stability index": 2.28},
      {"variant": "YCAKLCEPQWFIEETESSDDVEVL", "protein stability index": 1.97},
      {"variant": "YCAKLCEPQWFCEETESSDDVEVL", "protein stability index": 1.98},
      {"variant": "YCAKLCEPQWFHEETESSDDVEVL", "protein stability index": 2.44},
      {"variant": "YCAKLCEPQWFREETESSDDVEVL", "protein stability index": 2.76},
      {"variant": "YCAKLCEPQWFFEETESSDDVEVL", "protein stability index": 2.43},
      {"variant": "YCAKLCEPQWFVEETESSDDVEVL", "protein stability index": 2.16},
      {"variant": "YCAKLCEPQWFWEETESSDDVEVL", "protein stability index": 1.8},
      {"variant": "YCAKLCEPQWFKEETESSDDVEVL", "protein stability index": 2.39},
      {"variant": "YCAKLCEPQWFNEETESSDDVEVL", "protein stability index": 2.62},
      {"variant": "YCAKLCEPQWFLEETESSDDVEVL", "protein stability index": 2.14},
      {"variant": "YCAKLCEPQWFQEETESSDDVEVL", "protein stability index": 2.23},
      {"variant": "YCAKLCEPQWFPEETESSDDVEVL", "protein stability index": 3.15},
      {"variant": "YCAKLCEPQWFSEETESSDDVEVL", "protein stability index": 2.52},
      {"variant": "YCAKLCEPQWFYNETESSDDVEVL", "protein stability index": 1.6},
      {"variant": "YCAKLCEPQWFYFETESSDDVEVL", "protein stability index": 2.16},
      {"variant": "YCAKLCEPQWFYAETESSDDVEVL", "protein stability index": 2.11},
      {"variant": "YCAKLCEPQWFYHETESSDDVEVL", "protein stability index": 1.91},
      {"variant": "YCAKLCEPQWFYSETESSDDVEVL", "protein stability index": 2.51},
      {"variant": "YCAKLCEPQWFYKETESSDDVEVL", "protein stability index": 1.42},
      {"variant": "YCAKLCEPQWFYVETESSDDVEVL", "protein stability index": 1.57},
      {"variant": "YCAKLCEPQWFYPETESSDDVEVL", "protein stability index": 1.92},
      {"variant": "YCAKLCEPQWFYMETESSDDVEVL", "protein stability index": 2.13},
      {"variant": "YCAKLCEPQWFYYETESSDDVEVL", "protein stability index": 1.55},
      {"variant": "YCAKLCEPQWFYQETESSDDVEVL", "protein stability index": 1.65},
      {"variant": "YCAKLCEPQWFYRETESSDDVEVL", "protein stability index": 1.64},
      {"variant": "YCAKLCEPQWFYLETESSDDVEVL", "protein stability index": 2.12},
      {"variant": "YCAKLCEPQWFYIETESSDDVEVL", "protein stability index": 2.1},
      {"variant": "YCAKLCEPQWFYGETESSDDVEVL", "protein stability index": 1.26},
      {"variant": "YCAKLCEPQWFYTETESSDDVEVL", "protein stability index": 2.1},
      {"variant": "YCAKLCEPQWFYWETESSDDVEVL", "protein stability index": 1.8},
      {"variant": "YCAKLCEPQWFYDETESSDDVEVL", "protein stability index": 2.04},
      {"variant": "YCAKLLEPQWFYEETESSDDVEVL", "protein stability index": 2.96},
      {"variant": "YCAKLMEPQWFYEETESSDDVEVL", "protein stability index": 2.79},
      {"variant": "YCAKLREPQWFYEETESSDDVEVL", "protein stability index": 2.21},
      {"variant": "YCAKLSEPQWFYEETESSDDVEVL", "protein stability index": 2.18},
      {"variant": "YCAKLAEPQWFYEETESSDDVEVL", "protein stability index": 2.95},
      {"variant": "YCAKLGEPQWFYEETESSDDVEVL", "protein stability index": 1.52},
      {"variant": "YCAKLNEPQWFYEETESSDDVEVL", "protein stability index": 2.36},
      {"variant": "YCAKLFEPQWFYEETESSDDVEVL", "protein stability index": 2.41},
      {"variant": "YCAKLDEPQWFYEETESSDDVEVL", "protein stability index": 2.93},
      {"variant": "YCAKLIEPQWFYEETESSDDVEVL", "protein stability index": 2.88},
      {"variant": "YCAKLKEPQWFYEETESSDDVEVL", "protein stability index": 2.93},
      {"variant": "YCAKLEEPQWFYEETESSDDVEVL", "protein stability index": 3.63},
      {"variant": "YCAKLPEPQWFYEETESSDDVEVL", "protein stability index": 2.86},
      {"variant": "YCAKLHEPQWFYEETESSDDVEVL", "protein stability index": 2.32},
      {"variant": "YCAKLWEPQWFYEETESSDDVEVL", "protein stability index": 1.77},
      {"variant": "YCAKLYEPQWFYEETESSDDVEVL", "protein stability index": 2.29},
      {"variant": "YCAKLVEPQWFYEETESSDDVEVL", "protein stability index": 3.3},
      {"variant": "YCAKLTEPQWFYEETESSDDVEVL", "protein stability index": 1.84},
      {"variant": "YCAKLQEPQWFYEETESSDDVEVL", "protein stability index": 3.02},
      {"variant": "YCAVLCEPQWFYEETESSDDVEVL", "protein stability index": 3.05},
      {"variant": "YCAWLCEPQWFYEETESSDDVEVL", "protein stability index": 2.08},
      {"variant": "YCATLCEPQWFYEETESSDDVEVL", "protein stability index": 2.94},
      {"variant": "YCANLCEPQWFYEETESSDDVEVL", "protein stability index": 4.3},
      {"variant": "YCAQLCEPQWFYEETESSDDVEVL", "protein stability index": 3.46},
      {"variant": "YCAYLCEPQWFYEETESSDDVEVL", "protein stability index": 3.2},
      {"variant": "YCASLCEPQWFYEETESSDDVEVL", "protein stability index": 2.01},
      {"variant": "YCARLCEPQWFYEETESSDDVEVL", "protein stability index": 2.54},
      {"variant": "YCAPLCEPQWFYEETESSDDVEVL", "protein stability index": 2.43},
      {"variant": "YCAMLCEPQWFYEETESSDDVEVL", "protein stability index": 2.48},
      {"variant": "YCALLCEPQWFYEETESSDDVEVL", "protein stability index": 2.71},
      {"variant": "YCAKLCEPGWFYEETESSDDVEVL", "protein stability index": 2.15},
      {"variant": "YCAKLCEPNWFYEETESSDDVEVL", "protein stability index": 2.17},
      {"variant": "YCAKLCEPLWFYEETESSDDVEVL", "protein stability index": 2.14},
      {"variant": "YCAKLCEPPWFYEETESSDDVEVL", "protein stability index": 2.03},
      {"variant": "YCAKLCEPDWFYEETESSDDVEVL", "protein stability index": 3.86},
      {"variant": "YCAKLCEPKWFYEETESSDDVEVL", "protein stability index": 2.09},
      {"variant": "YCAKLCEPVWFYEETESSDDVEVL", "protein stability index": 1.74},
      {"variant": "YCAKLCEPEWFYEETESSDDVEVL", "protein stability index": 3.13},
      {"variant": "YCAKLCEPHWFYEETESSDDVEVL", "protein stability index": 2.13},
      {"variant": "YCAKLCEPAWFYEETESSDDVEVL", "protein stability index": 2.46},
      {"variant": "YCAKLCEPCWFYEETESSDDVEVL", "protein stability index": 1.93},
      {"variant": "YCAKLCEPTWFYEETESSDDVEVL", "protein stability index": 2.29},
      {"variant": "YCAKLCEPYWFYEETESSDDVEVL", "protein stability index": 2.66},
      {"variant": "YCAKLCEPIWFYEETESSDDVEVL", "protein stability index": 2.22},
      {"variant": "YCAKLCEPMWFYEETESSDDVEVL", "protein stability index": 1.88},
      {"variant": "YCAKLCEPWWFYEETESSDDVEVL", "protein stability index": 1.04},
      {"variant": "YCAKLCEPFWFYEETESSDDVEVL", "protein stability index": 2.19},
      {"variant": "YCAKLCEPRWFYEETESSDDVEVL", "protein stability index": 1.41},
      {"variant": "YCAKLCEPSWFYEETESSDDVEVL", "protein stability index": 2.4},
      {"variant": "YCAKLCEVQWFYEETESSDDVEVL", "protein stability index": 2.19},
      {"variant": "YCAKLCEFQWFYEETESSDDVEVL", "protein stability index": 1.94},
      {"variant": "YCAKLCEKQWFYEETESSDDVEVL", "protein stability index": 1.62},
      {"variant": "YCAKLCECQWFYEETESSDDVEVL", "protein stability index": 1.73},
      {"variant": "YCAKLCETQWFYEETESSDDVEVL", "protein stability index": 2.55},
      {"variant": "YCAKLCEGQWFYEETESSDDVEVL", "protein stability index": 2.56},
      {"variant": "YCAKLCEDQWFYEETESSDDVEVL", "protein stability index": 3.18},
      {"variant": "YCAKLCEEQWFYEETESSDDVEVL", "protein stability index": 3.1}
    ]}
  ]
}
